Four molecules from patent US20260209362A1 (VIB VZW, published 2026) can be followed below.

One may read the koff as the rate constant with which the complex falls apart.

Experiment [1] concerns the target T1, biotinylated mouse recombinant IL-12Rβ2 (produced in-house) (mouse, UniProt P97378 24-637, random biotinylated).
T1 construct: Soluble recombinant protein used for panning, ELISA and BLI; also called mIL-12RB2; mIL12RB2
T1 sequence: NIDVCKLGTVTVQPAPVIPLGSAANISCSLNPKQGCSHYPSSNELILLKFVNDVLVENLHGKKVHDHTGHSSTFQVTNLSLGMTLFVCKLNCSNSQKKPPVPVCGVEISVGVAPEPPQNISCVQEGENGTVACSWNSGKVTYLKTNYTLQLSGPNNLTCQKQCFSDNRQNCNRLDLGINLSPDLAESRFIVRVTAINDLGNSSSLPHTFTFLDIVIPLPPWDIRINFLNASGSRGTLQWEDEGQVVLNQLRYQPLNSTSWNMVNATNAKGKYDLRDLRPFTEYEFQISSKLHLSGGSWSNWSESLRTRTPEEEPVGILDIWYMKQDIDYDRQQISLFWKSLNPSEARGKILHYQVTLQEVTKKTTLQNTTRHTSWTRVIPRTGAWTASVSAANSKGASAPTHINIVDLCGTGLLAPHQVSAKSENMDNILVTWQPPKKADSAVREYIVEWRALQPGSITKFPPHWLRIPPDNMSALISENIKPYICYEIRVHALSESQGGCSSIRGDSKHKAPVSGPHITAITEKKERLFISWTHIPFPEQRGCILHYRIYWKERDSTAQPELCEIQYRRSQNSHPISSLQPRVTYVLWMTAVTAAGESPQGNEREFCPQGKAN
Description: ELISA, periplasmic extract on biotinylated mouse IL-12Rβ2.

For experiment [2], the target named is T2, biotinylated human recombinant IL-12Rβ2 (produced in-house) (human, UniProt Q99665 24-622, random biotinylated).
T2 construct: Soluble recombinant protein used for panning, ELISA and BLI; also called hIL-12RB2; hIL12RB2
T2 sequence: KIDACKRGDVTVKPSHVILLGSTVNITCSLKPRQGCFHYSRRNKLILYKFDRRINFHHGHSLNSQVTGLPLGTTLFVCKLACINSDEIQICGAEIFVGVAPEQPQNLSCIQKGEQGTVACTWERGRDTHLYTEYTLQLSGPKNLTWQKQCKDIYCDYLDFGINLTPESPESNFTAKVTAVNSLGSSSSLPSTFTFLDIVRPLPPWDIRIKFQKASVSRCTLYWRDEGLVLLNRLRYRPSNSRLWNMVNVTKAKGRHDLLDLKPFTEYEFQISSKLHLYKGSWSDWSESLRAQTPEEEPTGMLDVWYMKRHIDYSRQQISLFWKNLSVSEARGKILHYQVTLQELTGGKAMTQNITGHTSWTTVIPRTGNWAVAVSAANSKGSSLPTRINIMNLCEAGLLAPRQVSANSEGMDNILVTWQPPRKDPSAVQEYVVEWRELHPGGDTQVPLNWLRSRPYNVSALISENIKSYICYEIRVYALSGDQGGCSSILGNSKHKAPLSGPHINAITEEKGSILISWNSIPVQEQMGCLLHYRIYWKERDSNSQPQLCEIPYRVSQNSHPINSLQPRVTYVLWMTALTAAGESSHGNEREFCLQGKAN
Description: BLI (Octet Red), periplasmic extract on biotinylated human IL-12Rβ2 on streptavidin tips. A general note: Biolayer interferometry detects binding as a change in optical thickness at a sensor tip.

Experiment [3] addresses T2, biotinylated human recombinant IL-12Rβ2 …. Description: ELISA, periplasmic extract on biotinylated human IL-12Rβ2; signal over streptavidin control well.
The target of experiment [4] is T1, biotinylated mouse recombinant IL-12Rβ2 …. Description: ELISA, periplasmic extract on biotinylated mouse IL-12Rβ2; signal over streptavidin control well. For orientation: In an ELISA, binding on a coated surface is turned into a signal by an enzyme label.
In experiment [5] the target is T3, human IL-12Rβ2 expressed on cells (human, UniProt Q99665 24-862).
T3 construct: the cell lines are described by plasmid or cDNA number only; also called hIL-12RB2; HEK293T transiently transfected with human IL-12Rβ2
T3 sequence: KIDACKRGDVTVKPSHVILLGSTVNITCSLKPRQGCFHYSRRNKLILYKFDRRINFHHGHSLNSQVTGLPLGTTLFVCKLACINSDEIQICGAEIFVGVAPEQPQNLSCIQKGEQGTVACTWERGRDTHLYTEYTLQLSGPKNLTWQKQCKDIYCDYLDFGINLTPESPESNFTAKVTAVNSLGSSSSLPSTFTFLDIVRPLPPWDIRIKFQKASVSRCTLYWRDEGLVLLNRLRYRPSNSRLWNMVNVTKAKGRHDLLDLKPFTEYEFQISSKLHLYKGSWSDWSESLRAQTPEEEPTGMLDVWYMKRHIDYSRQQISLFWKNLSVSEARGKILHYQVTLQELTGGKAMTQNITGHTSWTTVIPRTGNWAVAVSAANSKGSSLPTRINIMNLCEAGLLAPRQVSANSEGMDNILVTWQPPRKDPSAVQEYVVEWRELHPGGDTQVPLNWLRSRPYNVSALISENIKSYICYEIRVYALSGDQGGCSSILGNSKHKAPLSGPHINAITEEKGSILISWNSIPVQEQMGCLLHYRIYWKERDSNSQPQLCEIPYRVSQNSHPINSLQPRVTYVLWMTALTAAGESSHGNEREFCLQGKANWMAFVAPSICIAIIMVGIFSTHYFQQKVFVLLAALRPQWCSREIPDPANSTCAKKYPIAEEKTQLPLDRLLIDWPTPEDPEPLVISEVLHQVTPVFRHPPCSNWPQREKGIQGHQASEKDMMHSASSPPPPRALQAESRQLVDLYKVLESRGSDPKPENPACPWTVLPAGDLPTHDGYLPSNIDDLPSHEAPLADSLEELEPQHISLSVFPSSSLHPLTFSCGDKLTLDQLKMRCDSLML
Description: flow cytometry, periplasmic extract VHH-HA on HEK293T cells transiently expressing human IL-12Rβ2. A general note: A flow cytometer gives signals particle by particle.

Experiment [6] addresses T2, biotinylated human recombinant IL-12Rβ2 …. Description: BLI (Octet Red), periplasmic extract on biotinylated human IL-12Rβ2 on streptavidin tips, 1:1 model.
Experiment [7] addresses T4, biotinylated recombinant mouse IL-12Rβ2 (produced in-house) (mouse, UniProt P97378 24-637, random biotinylated).
T4 construct: also called mIL-12RB2; mIL12RB2
T4 sequence: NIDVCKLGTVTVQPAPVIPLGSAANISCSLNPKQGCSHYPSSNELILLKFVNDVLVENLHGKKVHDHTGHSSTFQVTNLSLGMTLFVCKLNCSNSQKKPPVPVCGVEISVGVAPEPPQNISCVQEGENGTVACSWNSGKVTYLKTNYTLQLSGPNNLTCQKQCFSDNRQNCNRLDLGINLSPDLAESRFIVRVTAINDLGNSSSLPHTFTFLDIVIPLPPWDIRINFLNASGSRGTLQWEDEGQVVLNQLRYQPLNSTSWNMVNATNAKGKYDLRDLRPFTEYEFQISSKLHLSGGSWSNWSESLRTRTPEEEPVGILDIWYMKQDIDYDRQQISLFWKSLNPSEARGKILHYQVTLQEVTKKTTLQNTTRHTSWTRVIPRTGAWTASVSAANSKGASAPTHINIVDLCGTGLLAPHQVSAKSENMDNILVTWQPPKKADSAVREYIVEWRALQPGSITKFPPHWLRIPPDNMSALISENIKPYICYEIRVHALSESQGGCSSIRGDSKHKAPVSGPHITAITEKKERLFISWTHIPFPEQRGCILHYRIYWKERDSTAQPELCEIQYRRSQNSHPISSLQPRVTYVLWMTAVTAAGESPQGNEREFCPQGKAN
Description: ELISA, P.E. VHH on biotinylated mIL-12RB2.

Experiment [8] addresses T5, biotinylated recombinant human IL-12Rβ2 (produced in-house) (human, UniProt Q99665 24-622, random biotinylated).
T5 construct: also called hIL-12RB2; hIL12RB2
T5 sequence: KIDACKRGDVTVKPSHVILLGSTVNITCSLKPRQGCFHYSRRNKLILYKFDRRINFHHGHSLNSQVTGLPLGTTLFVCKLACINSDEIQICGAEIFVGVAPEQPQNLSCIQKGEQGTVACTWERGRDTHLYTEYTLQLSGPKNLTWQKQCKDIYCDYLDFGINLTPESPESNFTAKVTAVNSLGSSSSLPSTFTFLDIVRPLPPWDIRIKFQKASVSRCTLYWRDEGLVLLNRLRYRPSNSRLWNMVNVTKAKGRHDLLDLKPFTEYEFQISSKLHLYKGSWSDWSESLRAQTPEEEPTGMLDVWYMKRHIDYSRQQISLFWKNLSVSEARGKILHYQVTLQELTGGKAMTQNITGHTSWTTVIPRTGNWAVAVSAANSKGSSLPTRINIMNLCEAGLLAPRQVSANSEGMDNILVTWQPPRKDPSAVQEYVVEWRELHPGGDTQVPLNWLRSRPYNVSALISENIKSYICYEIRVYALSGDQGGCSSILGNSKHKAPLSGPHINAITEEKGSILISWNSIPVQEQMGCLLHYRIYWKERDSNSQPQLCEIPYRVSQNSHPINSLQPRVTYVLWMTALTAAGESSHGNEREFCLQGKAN
Description: BLI (Octet), P.E. VHH on immobilised biotinylated hIL-12RB2.

The target of experiment [9] is T5, biotinylated recombinant human IL-12Rβ2 …. Description: BLI (Octet), P.E. VHH on immobilised biotinylated hIL-12RB2, 1:1 model.
Experiment [10] addresses T6, human IL-12Rβ2 expressed on cells (human, UniProt Q99665 24-862).
T6 construct: HEK293T cells transiently transfected with a human IL-12Rβ2 plasmid (Genscript OHu21785); also called hIL-12RB2
T6 sequence: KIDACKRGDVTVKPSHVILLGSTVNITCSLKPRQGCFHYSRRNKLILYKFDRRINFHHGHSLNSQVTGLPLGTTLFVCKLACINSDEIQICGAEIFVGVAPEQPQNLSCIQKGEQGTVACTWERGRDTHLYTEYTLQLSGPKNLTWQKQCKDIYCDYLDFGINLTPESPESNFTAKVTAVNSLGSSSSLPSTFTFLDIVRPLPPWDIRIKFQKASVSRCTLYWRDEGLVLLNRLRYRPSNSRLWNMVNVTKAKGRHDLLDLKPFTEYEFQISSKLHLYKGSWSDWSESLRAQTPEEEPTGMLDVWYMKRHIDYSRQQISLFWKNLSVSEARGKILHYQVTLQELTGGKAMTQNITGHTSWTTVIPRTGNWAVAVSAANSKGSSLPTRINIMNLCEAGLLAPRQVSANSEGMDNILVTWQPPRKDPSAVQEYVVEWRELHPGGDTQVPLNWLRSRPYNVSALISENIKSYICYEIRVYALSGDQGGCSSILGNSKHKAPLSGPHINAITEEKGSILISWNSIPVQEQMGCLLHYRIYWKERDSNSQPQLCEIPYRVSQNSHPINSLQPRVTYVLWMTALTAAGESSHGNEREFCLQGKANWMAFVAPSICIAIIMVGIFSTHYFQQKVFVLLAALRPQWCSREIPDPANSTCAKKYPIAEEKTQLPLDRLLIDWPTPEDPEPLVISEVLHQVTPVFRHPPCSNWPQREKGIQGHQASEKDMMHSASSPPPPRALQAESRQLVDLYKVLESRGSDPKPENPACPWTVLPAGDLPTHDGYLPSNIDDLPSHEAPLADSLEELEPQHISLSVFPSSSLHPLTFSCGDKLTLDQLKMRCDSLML
Description: flow cytometry, P.E. VHH on HEK293T cells transiently expressing hIL-12RB2.

B1: anti-IL-12Rβ2 VHH clone 3CAHS171 (clone ID 20407) (VHH)
VHH: QVQLQESGGGLVQPGGSLRLTCVASGFPFSTHAMSWVRQPPGKGREWISAINSGGDSTDYADSVMGRFTISRDNAKNTVYLQMNSLKSEDTAAYYCAKYEDCSDYDCSSRASWGQGTQVTVSS
notes: Tested as periplasmic extract; not shown: C-terminal HA tag
In the case of B1, in [1], the binding result is on record as “no binding”. The Response in experiment [2] worked out at 0.195. Moreover, the “hIL12RB2/control (ELISA)” value in experiment [3] worked out at 3.27 ratio. In experiment [4], the “mIL12RB2/control (ELISA)” value worked out at 0.96 ratio. Moreover, in [5], the “% cells bound” value came out at 47.5% and the dMFI turned out to be 1180. The dissociation rate constant (koff) in experiment [6] was found to be 0.00431 s⁻¹.

B2: anti-IL-12Rβ2 VHH clone 3CAHS41 (clone ID 20394) (VHH)
VHH: QVQLQESGGGLVQAGDSLRLSCAASGRTFDTYIVGWFRQAPGKEREFVSALSWSDDTTIRDDSLRGRFTISRDNAKNTVYLLMNSLKPEDTAVYYCAAKAKPPAATWSSYRNREWYDYWGQGTQVTVSS
notes: as for B1
For the molecule B2, the binding result in experiment [1] is “no binding”. For the same molecule, the Response in experiment [2] was found to be 0.509. Moreover, the “hIL12RB2/control (ELISA)” value in experiment [3] was 8.77 ratio. Further, the “mIL12RB2/control (ELISA)” value in [4] was 1.35 ratio. Also, in experiment [5], the “% cells bound” value turned out to be 43.3% and the dMFI turned out to be 971. For the same molecule, in experiment [6], the koff turned out to be 0.00441 s⁻¹.

B3: anti-IL-12Rβ2 VHH clone 3CRHS51 (VHH, not shown: small tags and cut ends)
VHH: QVQLQESGGGLVQPGGSLRLSCAASGFTFSTYAMSWVRQAPGKGLEWVSAVNSGGLSTDYADSVEGRFTISRDDAKNMLFLQMNRLKPEDTARYYCAKYEDCSDYVCDRAGYWGQGTQVTVSS
notes: tested as periplasmic extract; also called 3CRASS1
As to B3, in experiment [7], the binding result is “no binding”. Besides, in experiment [8], the Response was found to be 0.327. In [9], the dissociation rate constant (koff) stood at 0.0043 s⁻¹. This molecule returned a dMFI in experiment [10] of 1140.

B4: anti-IL-12Rβ2 VHH clone 3CAHS102 (clone ID 20399) (VHH)
VHH: QVQLQESGGGLVQPGGSLRLSCAASGSILRINLMGWYRQVPGKQRELVAEMSTGGSTTYVDSVEGRFTISRDNAKNTVYLQMNSLKPEDTAVYYCNAKAWQLGRLENDDWGQGTQVTVSS
notes: as for B1
For the molecule B4, the binding result in [1] is “no binding”. For the same molecule, the Response in experiment [2] stood at 0.323. Moreover, the “hIL12RB2/control (ELISA)” value in [3] is 3.54 ratio. For the same molecule, in experiment [4], the “mIL12RB2/control (ELISA)” value was found to be 1.02 ratio. Also, in experiment [5], the “% cells bound” value came out at 44.7% and the dMFI worked out at 994. The koff in [6] came to 0.00267 s⁻¹.
